In paper PMC9638941, “Molecular basis of dual anti-CRISPR and auto-regulatory functions of AcrIF24” (Nucleic Acids Research, 2022):

How the values were obtained:
AcrIF24 R221W = assay: SEC-MALS; conditions: parent: 55.76
[1] = target: P. aeruginosa type I-F Cascade complex (Cas5f1, Cas6f, six copies of Cas7f1, Cas8f1 and a 60 nt crRNA) (UniProt Q02MM2); assay: SEC followed by SDS-PAGE, band intensity quantified; conditions: parent: est. 100; read off a plot
[2] = target: AcrIF24 Y128K/Y217W double mutant; assay: SEC-MALS; conditions: parent: 55.76
AcrIF24 T129W = assay: SEC-MALS; conditions: parent: 55.76
AcrIF24 wild type [3] = target: T1, AcrIF24 wild type (Pseudomonas aeruginosa prophage, UniProt A0AA82WNY5 1-228); assay: EMSA; concentration-dependent; EMSA-P: 10 mM HEPES pH 7.5, 1 mM MgCl2, 20 mM KCl, 1 mM TCEP, 5% glycerol, 30 min on ice; 10% native 0.5x TBE gel, SYBR Gold; Cascade EMSA buffer not in material; conditions: protein: recombinant; chain copies: 2; label: none (SYBR Gold stain); blunt
T1 sequence: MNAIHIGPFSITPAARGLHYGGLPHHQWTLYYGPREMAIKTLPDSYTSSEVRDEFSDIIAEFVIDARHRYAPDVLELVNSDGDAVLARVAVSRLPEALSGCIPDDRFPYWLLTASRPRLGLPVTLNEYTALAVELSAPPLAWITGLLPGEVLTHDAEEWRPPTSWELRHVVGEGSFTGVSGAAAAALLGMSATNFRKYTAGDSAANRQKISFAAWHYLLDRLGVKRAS

AcrIF24 wild type [4] = target: T1, AcrIF24 wild type; assay: EMSA; EMSA-P: 10 mM HEPES pH 7.5, 1 mM MgCl2, 20 mM KCl, 1 mM TCEP, 5% glycerol, 30 min on ice; 10% native 0.5x TBE gel, SYBR Gold; Cascade EMSA buffer not in material; conditions: protein: recombinant, chain copies: 2, label: none (SYBR Gold stain)
[5] = target: the molecule itself; assay: SEC-MALS; Superdex 200 Increase 10/300 GL, SEC buffer (20 mM Tris-HCl pH 8.0, 150 mM NaCl), 0.4 ml/min, 20°C; DAWN-TREOS detector

AcrIF24 (wildtype, full length, residues 1-228) R221W
other: MW (kDa) by SEC-MALS (AcrIF24 R221W): 52.4 kDa

AcrIF24 (wildtype, full length, residues 1-228) G22Y
percent of parent [1]: 98%

AcrIF24 (wildtype, full length, residues 1-228) Y128K; Y217W
other: MW (kDa) by SEC-MALS [2]: 39.6 kDa

AcrIF24 (wildtype, full length, residues 1-228) G189K
percent of parent [1]: 88%

AcrIF24 (wildtype, full length, residues 1-228) W110K
percent of parent [1]: 11%

AcrIF24 (wildtype, full length, residues 1-228) T129W
other: MW (kDa) by SEC-MALS (AcrIF24 T129W): 53.9 kDa

AcrIF24 (wildtype, full length, residues 1-228) D105K
percent of parent [1]: 98%

B1: IR-L (dsDNA)
DNA 1: CAGAATATCATTGCATAGCTCGATTCGAGCTAATATAGTAATACCAACAGCGCGGCACACCGCCAGCACTGAACCT
DNA 2: AGGTTCAGTGCTGGCGGTGTGCCGCGCTGTTGGTATTACTATATTAGCTCGAATCGAGCTATGCAATGATATTCTG
binding result (AcrIF24 wild type [3]): binds

B2: IR-L half-site mutant (dsDNA)
DNA 1: CAGAATATCATTGCAGCATGATCTTCGAGCTAATATAGTAATACCAACAGCGCGGCACACCGCCAGCACTGAACCT
DNA 2: AGGTTCAGTGCTGGCGGTGTGCCGCGCTGTTGGTATTACTATATTAGCTCGAAGATCATGCTGCAATGATATTCTG
binding result (AcrIF24 wild type [4]): no binding

B3: AcrIF24 (wildtype, full length, residues 1-228) (natural protein)
chain: MNAIHIGPFSITPAARGLHYGGLPHHQWTLYYGPREMAIKTLPDSYTSSEVRDEFSDIIAEFVIDARHRYAPDVLELVNSDGDAVLARVAVSRLPEALSGCIPDDRFPYWLLTASRPRLGLPVTLNEYTALAVELSAPPLAWITGLLPGEVLTHDAEEWRPPTSWELRHVVGEGSFTGVSGAAAAALLGMSATNFRKYTAGDSAANRQKISFAAWHYLLDRLGVKRAS
stoichiometry N [5]: 2

B4: IR-S (dsDNA)
DNA 1: TAGCTCGATTCGAGCTA
DNA 2: TAGCTCGAATCGAGCTA
binding result (AcrIF24 wild type [4]; blunt): binds

B5: IR-S half-site mutant (dsDNA)
DNA 1: GCATGATCTTCGAGCTA
DNA 2: TAGCTCGAAGATCATGC
binding result (AcrIF24 wild type [4]): no binding
